{
  "source": "patent US20240024520A1",
  "about": "“AUTONOMOUS KNOB DOMAIN PEPTIDES” (UCB BIOPHARMA SRL, priority 2020, published 2024)",
  "key": {"[1]": {"molecular_target": "T1, C5 (Homo sapiens, UniProt P01031)", "T1 sequence (P01031 19-1676)": "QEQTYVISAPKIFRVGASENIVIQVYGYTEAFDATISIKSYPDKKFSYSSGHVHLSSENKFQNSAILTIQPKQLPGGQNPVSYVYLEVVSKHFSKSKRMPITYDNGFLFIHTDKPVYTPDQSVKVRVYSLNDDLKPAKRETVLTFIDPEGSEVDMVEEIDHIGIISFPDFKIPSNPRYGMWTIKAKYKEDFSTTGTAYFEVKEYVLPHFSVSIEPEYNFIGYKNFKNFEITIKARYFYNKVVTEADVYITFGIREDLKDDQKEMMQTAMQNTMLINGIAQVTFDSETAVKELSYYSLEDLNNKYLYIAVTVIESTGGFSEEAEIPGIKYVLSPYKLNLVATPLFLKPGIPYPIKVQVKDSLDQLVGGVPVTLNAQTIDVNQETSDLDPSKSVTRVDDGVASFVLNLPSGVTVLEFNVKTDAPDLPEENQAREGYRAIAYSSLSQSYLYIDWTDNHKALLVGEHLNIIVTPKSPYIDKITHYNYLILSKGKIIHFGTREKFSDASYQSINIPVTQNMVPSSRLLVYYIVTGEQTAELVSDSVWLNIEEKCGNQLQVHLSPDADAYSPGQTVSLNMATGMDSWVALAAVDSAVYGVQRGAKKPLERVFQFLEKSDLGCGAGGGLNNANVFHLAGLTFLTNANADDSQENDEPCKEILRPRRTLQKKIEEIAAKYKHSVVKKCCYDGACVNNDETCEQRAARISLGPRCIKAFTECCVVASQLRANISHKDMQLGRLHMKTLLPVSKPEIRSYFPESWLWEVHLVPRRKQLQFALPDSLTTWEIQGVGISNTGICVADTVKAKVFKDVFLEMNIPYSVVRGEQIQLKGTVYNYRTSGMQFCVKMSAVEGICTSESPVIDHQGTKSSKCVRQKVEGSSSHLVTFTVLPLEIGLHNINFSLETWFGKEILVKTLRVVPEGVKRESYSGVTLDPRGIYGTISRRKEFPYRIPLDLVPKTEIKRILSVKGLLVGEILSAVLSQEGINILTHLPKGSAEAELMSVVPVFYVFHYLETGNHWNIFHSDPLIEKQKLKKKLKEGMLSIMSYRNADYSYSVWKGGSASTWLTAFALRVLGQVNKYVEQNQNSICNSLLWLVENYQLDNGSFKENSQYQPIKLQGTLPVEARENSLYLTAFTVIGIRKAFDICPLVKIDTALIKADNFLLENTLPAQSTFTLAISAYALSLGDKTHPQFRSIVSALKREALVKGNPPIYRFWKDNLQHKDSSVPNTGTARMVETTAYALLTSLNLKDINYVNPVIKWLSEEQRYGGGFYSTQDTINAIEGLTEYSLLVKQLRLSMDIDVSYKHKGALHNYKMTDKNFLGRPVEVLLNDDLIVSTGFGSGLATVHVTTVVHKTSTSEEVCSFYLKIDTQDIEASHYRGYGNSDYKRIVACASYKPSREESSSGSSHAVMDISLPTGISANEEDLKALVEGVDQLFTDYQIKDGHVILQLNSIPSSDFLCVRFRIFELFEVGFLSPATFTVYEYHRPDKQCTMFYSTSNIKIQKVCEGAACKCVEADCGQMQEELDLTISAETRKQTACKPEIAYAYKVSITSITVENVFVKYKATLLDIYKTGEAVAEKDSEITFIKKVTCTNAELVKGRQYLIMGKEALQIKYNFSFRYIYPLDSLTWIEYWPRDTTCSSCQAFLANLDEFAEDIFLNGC", "settings": "C5 coated directly and biotinylated C5 captured on streptavidin; OD 630 nm"}, "[2]": {"molecular_target": "T1, C5", "test": "Biacore (SPR) single-cycle kinetics on immobilised C5", "type": "binding", "settings": "C5 binding, Biacore, n = 3 independent experiments; for Mean Koff: in 1/s", "experimental": "Binding to C5 was measured using surface plasmon resonance (SPR) single-cycle kinetics as described below.\nBiacore single-cycle kinetics. Using a Biacore 8K (GE Healthcare), C5 was immobilized on a CM5 chip by amine coupling. Flow cells were activated using EDC/NHS (flow rate, 10 μL/min; contact time, 30 s). C5, at 1 μg/mL in pH 4.5 Sodium-acetate buffer, was immobilized on flow cell two only (flow rate, 10 μL/min; contact time, 420 s). Finally, ethanolamine was applied to both flow cells (flow rate, 10 μL/min; contact time, 420 s). A final immobilization level of approximately 2,000 response units was obtained.\nSingle-cycle kinetics were measured using titrations in HBS-EP buffer. A high flow rate of 40 μL/min was used, with a contact time of 230 s and a dissociation time of 900 s. Binding to the reference surface was subtracted, and the data were fitted to a single-site binding model using Biacore evaluation software.\nWe measured individual rate constants (kon and koff) and equilibrium dissociation constants (KD) for knob domain peptides binding to C5 by the Biacore single-cycle kinetics method described above.\nWe used SPR single cycle kinetics to measure binding to human C5 protein."}, "[3]": {"molecular_target": "C3 protein (Homo sapiens, UniProt P01024)", "sequence (P01024 23-1663)": "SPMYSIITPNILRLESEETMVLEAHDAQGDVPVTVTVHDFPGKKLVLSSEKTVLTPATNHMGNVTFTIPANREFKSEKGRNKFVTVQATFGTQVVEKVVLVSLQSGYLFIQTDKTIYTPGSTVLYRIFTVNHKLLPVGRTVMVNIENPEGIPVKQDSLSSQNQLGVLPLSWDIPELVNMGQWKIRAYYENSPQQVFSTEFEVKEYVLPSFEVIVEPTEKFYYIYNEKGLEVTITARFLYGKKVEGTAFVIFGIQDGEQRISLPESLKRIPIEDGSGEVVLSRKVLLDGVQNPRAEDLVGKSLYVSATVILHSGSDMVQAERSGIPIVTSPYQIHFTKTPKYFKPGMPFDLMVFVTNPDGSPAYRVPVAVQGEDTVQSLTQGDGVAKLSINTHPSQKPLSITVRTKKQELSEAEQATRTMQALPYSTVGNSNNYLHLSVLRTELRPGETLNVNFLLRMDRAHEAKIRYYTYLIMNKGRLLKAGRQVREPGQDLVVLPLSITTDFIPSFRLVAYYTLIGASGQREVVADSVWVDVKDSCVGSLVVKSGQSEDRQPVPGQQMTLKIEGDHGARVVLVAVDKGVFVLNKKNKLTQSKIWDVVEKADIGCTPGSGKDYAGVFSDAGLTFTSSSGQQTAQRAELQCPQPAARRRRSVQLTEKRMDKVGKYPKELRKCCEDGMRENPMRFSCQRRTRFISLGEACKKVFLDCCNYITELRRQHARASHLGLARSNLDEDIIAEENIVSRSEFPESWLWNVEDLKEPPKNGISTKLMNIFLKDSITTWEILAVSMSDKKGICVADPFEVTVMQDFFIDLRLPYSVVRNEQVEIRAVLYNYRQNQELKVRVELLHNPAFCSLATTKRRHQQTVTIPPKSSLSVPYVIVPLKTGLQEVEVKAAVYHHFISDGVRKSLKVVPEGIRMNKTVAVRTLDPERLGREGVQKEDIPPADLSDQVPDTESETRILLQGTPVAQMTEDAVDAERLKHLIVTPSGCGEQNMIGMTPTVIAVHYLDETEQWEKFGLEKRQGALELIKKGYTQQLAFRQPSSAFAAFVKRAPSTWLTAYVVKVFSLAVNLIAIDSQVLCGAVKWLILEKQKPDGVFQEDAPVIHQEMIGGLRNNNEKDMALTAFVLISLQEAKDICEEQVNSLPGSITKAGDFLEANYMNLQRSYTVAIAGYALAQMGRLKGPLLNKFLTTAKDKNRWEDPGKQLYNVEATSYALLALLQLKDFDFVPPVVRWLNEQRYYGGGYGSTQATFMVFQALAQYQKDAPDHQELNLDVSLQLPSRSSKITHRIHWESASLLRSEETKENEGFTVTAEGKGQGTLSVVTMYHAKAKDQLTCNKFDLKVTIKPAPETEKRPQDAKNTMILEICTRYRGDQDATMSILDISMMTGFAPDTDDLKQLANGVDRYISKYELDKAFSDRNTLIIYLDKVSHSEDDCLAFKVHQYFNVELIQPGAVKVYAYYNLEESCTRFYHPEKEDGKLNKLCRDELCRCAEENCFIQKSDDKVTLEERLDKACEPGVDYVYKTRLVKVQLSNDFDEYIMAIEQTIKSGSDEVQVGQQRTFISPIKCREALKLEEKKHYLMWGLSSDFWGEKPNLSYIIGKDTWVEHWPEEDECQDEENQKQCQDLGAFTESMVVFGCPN", "settings": "C3 coated directly and biotinylated C3 captured on streptavidin; OD 630 nm"}, "[4]": {"molecular_target": "T1, C5", "test": "Monoclonal phage screening ELISA, human C5", "type": "binding", "settings": "anti-C5 ultralong CDR-H3; binder = OD>0.2 AU", "experimental": "(§1) For the C5 libraries, a single round of enrichment was performed with either human or rat C5 protein. […] Phage were blocked for 30 minutes. Biotinylated antigen was added to the blocked phage at a concentration of 100 nM and incubated at room temperature with mixing.\n(§2) Colonies were picked into a 96-well culture plate containing selective medium 2TY supplemented with 1% Glucose and 100 μg/ml Carbenicillin and was incubated at 37° C. until wells reached mid-log phase of growth prior to addition of M13K07 helper phage. The block was incubated without shaking for 1 hour to achieve infection and phage production using continued culture in selective media supplemented with 50 μg/ml Kanamycin and 100 μg/ml Carbenicillin.\nBinding to antigen was assessed by monoclonal phage ELISA, 96-well flat bottom Nunc MaxiSorp plates (Thermofisher) were coated with a 2.5 μg/ml solution of human, mouse, or rat serum albumin, human C5 or mouse C5 diluted with PBS, and left overnight at 4° C. Negative control plate and Anti-myc tag plate were also prepared.\nMonoclonal phage rescue supernatants were blocked with an equal volume of a 2% milk (w/v) in PBS, for serum albumin proteins, or 2% BSA and 2% milk (w/v) in PBS solution. The coating solution was removed from coated Nunc plates and each plate was blocked with 1% BSA in PBS (for C5 libraries) or 1% milk powder (for albumin library). Both phage and Nunc plates were blocked for 1 hour at room temperature. Nunc plates were washed using a 96-well microplate washer (BioTek) with a PBS solution contain 0.1% Tween20 (Sigma Aldrich). 100 of blocked phage solution was added to each well of Nunc MaxiSorp plate and left shaking at room temperature for 1 hour. Plates were washed and dried as previously described. 100 of an Anti-M13-Horse radish peroxidase conjugated antibody (GE Healthcare) diluted (1:5,000) in a 1% BSA or milk solution was added to each well and left shaking at room temperature for 1 hour. Plates were washed again and 50 μL of TMB solution (Merck Millipore) was added to each well. Plates were left shaking for 10 minutes. Absorbance was measured at 630 nm and 490 nm. Binding signals were obtained where Absorbance at 630 nm was >3-times the signal upon irrelevant antigen.\nBy monoclonal phage ELISA the following ultralong CDR-H3 sequences were identified as binders (OD>0.2 AU): […]"}, "[5]": {"molecular_target": "human complement component C3 (Homo sapiens, UniProt P01024)", "sequence (P01024 23-1663)": "as above", "test": "SPR binding / counter screen on complement component C3", "settings": "Biacore, n = 3 independent experiments", "from_the_text": "The PGT121-knob domain fusion proteins were counter screened for binding to human complement component C3. C3 is the closest human homologue to C5, sharing a conserved fold and a sequence homology of 26.5%.\nWe measured binding to C3 and C5 by SPR multi-cycle kinetics and we report full binding kinetics and equilibrium dissociation constants (KD) for binding to both proteins."}, "[6]": {"molecular_target": "rat C5 protein (Rattus norvegicus, UniProt P08650)", "sequence (P08650 19-674 limits assumed)": "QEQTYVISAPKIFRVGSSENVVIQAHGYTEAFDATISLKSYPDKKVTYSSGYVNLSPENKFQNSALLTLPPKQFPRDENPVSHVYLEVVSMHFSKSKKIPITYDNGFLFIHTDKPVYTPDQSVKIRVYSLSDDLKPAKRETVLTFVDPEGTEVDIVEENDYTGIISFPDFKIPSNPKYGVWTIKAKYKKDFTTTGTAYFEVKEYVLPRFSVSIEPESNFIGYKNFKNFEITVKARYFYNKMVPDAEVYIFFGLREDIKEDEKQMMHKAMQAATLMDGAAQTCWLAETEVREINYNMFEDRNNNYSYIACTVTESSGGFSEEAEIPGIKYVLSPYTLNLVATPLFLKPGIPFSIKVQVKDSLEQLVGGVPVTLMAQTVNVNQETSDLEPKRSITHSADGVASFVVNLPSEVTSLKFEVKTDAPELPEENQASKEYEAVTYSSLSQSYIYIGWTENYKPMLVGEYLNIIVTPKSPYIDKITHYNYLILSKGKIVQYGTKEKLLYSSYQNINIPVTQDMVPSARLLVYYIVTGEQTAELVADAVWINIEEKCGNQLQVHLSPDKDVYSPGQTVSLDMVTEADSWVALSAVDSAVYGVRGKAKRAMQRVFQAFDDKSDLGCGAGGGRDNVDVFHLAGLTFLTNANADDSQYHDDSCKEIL", "sequence (P08650 679-1681 limits assumed)": "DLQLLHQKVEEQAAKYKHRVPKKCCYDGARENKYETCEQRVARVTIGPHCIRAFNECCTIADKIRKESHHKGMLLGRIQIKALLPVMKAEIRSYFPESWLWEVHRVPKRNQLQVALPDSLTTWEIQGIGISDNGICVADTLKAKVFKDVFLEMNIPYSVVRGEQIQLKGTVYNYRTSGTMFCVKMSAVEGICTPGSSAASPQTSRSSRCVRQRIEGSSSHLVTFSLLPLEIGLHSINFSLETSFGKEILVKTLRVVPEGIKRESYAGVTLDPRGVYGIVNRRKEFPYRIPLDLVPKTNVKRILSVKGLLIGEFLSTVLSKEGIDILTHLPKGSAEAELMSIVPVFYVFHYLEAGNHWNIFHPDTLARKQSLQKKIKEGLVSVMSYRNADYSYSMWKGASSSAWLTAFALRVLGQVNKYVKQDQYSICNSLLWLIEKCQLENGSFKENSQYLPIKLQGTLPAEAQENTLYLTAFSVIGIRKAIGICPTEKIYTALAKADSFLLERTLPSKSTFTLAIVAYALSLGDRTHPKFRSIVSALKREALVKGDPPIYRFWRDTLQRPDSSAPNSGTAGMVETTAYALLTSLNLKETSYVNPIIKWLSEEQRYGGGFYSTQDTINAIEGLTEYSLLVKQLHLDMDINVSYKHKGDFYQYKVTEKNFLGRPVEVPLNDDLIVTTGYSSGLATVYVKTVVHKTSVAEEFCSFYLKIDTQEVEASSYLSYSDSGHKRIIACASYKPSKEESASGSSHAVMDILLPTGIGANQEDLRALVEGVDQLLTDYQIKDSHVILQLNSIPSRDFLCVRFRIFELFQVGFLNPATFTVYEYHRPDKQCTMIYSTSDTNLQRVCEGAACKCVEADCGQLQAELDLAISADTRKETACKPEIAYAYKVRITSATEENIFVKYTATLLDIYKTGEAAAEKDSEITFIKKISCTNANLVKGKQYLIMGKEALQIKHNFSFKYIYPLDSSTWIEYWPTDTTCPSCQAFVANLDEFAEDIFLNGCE", "test": "Monoclonal phage screening ELISA, rat C5", "type": "binding", "settings": "anti-C5 ultralong CDR-H3; binder = OD>0.2 AU", "experimental": "as §1, §2\n[…] Negative control plate and Anti-myc tag plate were also prepared.\nMonoclonal phage rescue supernatants were blocked with an equal volume of a 2% milk (w/v) in PBS, for serum albumin proteins, or 2% BSA and 2% milk (w/v) in PBS solution. The coating solution was removed from coated Nunc plates and each plate was blocked with 1% BSA in PBS (for C5 libraries) or 1% milk powder (for albumin library). Both phage and Nunc plates were blocked for 1 hour at room temperature. […] Absorbance was measured at 630 nm and 490 nm. Binding signals were obtained where Absorbance at 630 nm was >3-times the signal upon irrelevant antigen. […]"}},
  "data": [
    {"molecule": "hC3nb1-K8: hC3nb1 with K8 ultralong CDR-H3 inserted between H74 and H75, displayed on M13 phage (protein, left off: large carriers) VHH: QVQLVETGGGLVQAGGSLRLSCAASGSIFSLNAMGWFRQAPGKEREFVATINRSGGRTYYADSVKGRFTISRDNGTVQQKTHQVCPDGFNWGYGCAAGSSRFCTRHDWCCYDERADSHTYGFCTGNRVTNTYEFHADAKNMVYLQMHSLKPEDTAIYYCAAGTGWSPQTDNEYNYWGQGTQVTVSS", "values": [
      {"measurement": "binding to human C5 (phage ELISA)", "setting": "[1]", "value": "displayed binding to human C5"}
    ]},
    {"molecule": "hC3Nb1 Loop 3 (protein, left off: a dimerising Fc or GST) VHH: QVQLVETGGGLVQAGGSLRLSCAASGSIFSLNAMGWFRQAPGKEREFVATINRSGGRTYYADSVKGSGGGSGCPPGYKSGVDCSPGSECKWGCYAVDGRRYGGYGADSGVSGGGSRFTISRDNGKNMVYLQMHSLKPEDTAIYYCAAGTGWSPQTDNEYNYWGQGTQVTVSS", "values": [
      {"measurement": "Mean Kon", "setting": "[2]", "value": "2.37E+05"},
      {"measurement": "Mean Koff", "setting": "[2]", "value": "1.37E−04"}
    ]},
    {"molecule": "hC3nb1: camelid VHH which binds C3 and C3b, PDB code 6EHG (protein, left off: a dimerising Fc or GST) VHH: QVQLVETGGGLVQAGGSLRLSCAASGSIFSLNAMGWFRQAPGKEREFVATINRSGGRTYYADSVKGRFTISRDNGKNMVYLQMHSLKPEDTAIYYCAAGTGWSPQTDNEYNYWGQGTQVTVSS", "values": [
      {"measurement": "binding to human C5 (phage ELISA)", "setting": "[1]", "value": "No cross-reactivity to C5 protein was observed"},
      {"measurement": "binding to human C3 (phage ELISA)", "setting": "[3]", "value": "binding to human C3"}
    ]},
    {"molecule": "hC3Nb1 Loop 2 (protein, left off: a dimerising Fc or GST) VHH: QVQLVETGGGLVQAGGSLRLSCAASGSIFSLNAMGWFRQAPSGGGSGCPPGYKSGVDCSPGSECKWGCYAVDGRRYGGYGADSGVSGGGSKEREFVATINRSGGRTYYADSVKGRFTISRDNGKNMVYLQMHSLKPEDTAIYYCAAGTGWSPQTDNEYNYWGQGTQVTVSS", "values": [
      {"measurement": "Mean Kon", "setting": "[2]", "value": "2.85E+05"},
      {"measurement": "Mean Koff", "setting": "[2]", "value": "9.09E−05"}
    ]},
    {"molecule": "542 (protein, Anti-C5 ultralong CDR-H3) CDR: TTVVQRTHKTTSCPDGYHFIEPCHSGLCWREGACNGDGICANGLGRCRTVSETSTYEFYVN", "values": [
      {"measurement": "Specificity", "setting": "[4]", "value": "Human"}
    ]},
    {"molecule": "hC3Nb1 C-Term (protein, left off: a dimerising Fc or GST) VHH: QVQLVETGGGLVQAGGSLRLSCAASGSIFSLNAMGWFRQAPGKEREFVATINRSGGRTYYADSVKGRFTISRDNGKNMVYLQMHSLKPEDTAIYYCAAGTGWSPQTDNEYNYWGQGTQVTVSSGGGSGCPPGYKSGVDCSPGSECKWGCYAVDGRRYGGYGADSGV", "values": [
      {"measurement": "Mean Kon", "setting": "[2]", "value": "4.52E+05"},
      {"measurement": "Mean Koff", "setting": "[2]", "value": "1.19E−04"}
    ]},
    {"molecule": "hC3Nb1 N-Term (protein, left off: a dimerising Fc or GST) VHH: TTVHQRTIKSGCPPGYKSGVDCSPGSECKWGCYAVDGRRYGGYGADSGVGSTYTHEFYVDAWGQGSSSSGSSSSGQVQLVETGGGLVQAGGSLRLSCAASGSIFSLNAMGWFRQAPGKEREFVATINRSGGRTYYADSVKGRFTISRDNGKNMVYLQMHSLKPEDTAIYYCAAGTGWSPQTDNEYNYWGQGTQVTVSS", "values": [
      {"measurement": "Mean Kon", "setting": "[2]", "value": "6.18E+05"},
      {"measurement": "Mean Koff", "setting": "[2]", "value": "1.18E−04"}
    ]},
    {"molecule": "hC3Nb1Loop2ΔP (protein, left off: a dimerising Fc or GST) VHH: QVQLVETGGGLVQAGGSLRLSCAASGSIFSLNAMGWFRQASGGGSGCPPGYKSGVDCSPGSECKWGCYAVDGRRYGGYGADSGVSGGGSKEREFVATINRSGGRTYYADSVKGRFTISRDNGKNMVYLQMHSLKPEDTAIYYCAAGTGWSPQTDNEYNYWGQGTQVTVSS", "values": [
      {"measurement": "Kd", "setting": "[5]", "value": 1.51, "unit": "nM"},
      {"measurement": "Mean Kon", "setting": "[5]", "value": "7.32E+05"},
      {"measurement": "Mean Koff", "setting": "[5]; in 1/s", "value": "2.01E−04"},
      {"measurement": "Mean Kon", "setting": "[2]", "value": "1.76E+05"},
      {"measurement": "Mean Koff", "setting": "[2]", "value": "1.48E−04"}
    ]},
    {"molecule": "hC3nb1-K57: hC3nb1 with K57 ultralong CDR-H3 inserted between H74 and H75, displayed on M13 phage (protein, left off: large carriers) VHH: QVQLVETGGGLVQAGGSLRLSCAASGSIFSLNAMGWFRQAPGKEREFVATINRSGGRTYYADSVKGRFTISRDNGTTVHQRTIKSGCPPGYKSGVDCSPGSECKWGCYAVDGRRYGGYGADSGVGSTYTHEFYVDAKNMVYLQMHSLKPEDTAIYYCAAGTGWSPQTDNEYNYWGQGTQVTVSS", "values": [
      {"measurement": "binding to human C5 (phage ELISA)", "setting": "[1]", "value": "displayed binding to human C5"}
    ]},
    {"molecule": "568 (protein, Anti-C5 ultralong CDR-H3) CDR: TTVVQRTRKIVTCPDGYSYSEGCGKGDDCGGVHCCANGGVTCWYRHCCSTGTDTYSYEWYVD", "values": [
      {"measurement": "Specificity", "setting": "[4]", "value": "Human"}
    ]},
    {"molecule": "556 (protein, Anti-C5 ultralong CDR-H3) CDR: TTVHQKTTRVNSCPDGYGYGDGYCYDSGCSASDCYGVDALYSYGHCGCSIYTERPRYEWYVD", "values": [
      {"measurement": "Specificity", "setting": "[6]", "value": "Human and Rat"},
      {"measurement": "Specificity", "setting": "[4]", "value": "Human and Rat"}
    ]},
    {"molecule": "hC3nb1-K92: hC3nb1 with K92 ultralong CDR-H3 inserted between H74 and H75, displayed on M13 phage (protein, left off: large carriers) VHH: QVQLVETGGGLVQAGGSLRLSCAASGSIFSLNAMGWFRQAPGKEREFVATINRSGGRTYYADSVKGRFTISRDNGSIVHQKAHTSVTCPEGWSECGVAIYGYECGRWGCGHFLNSGPNISPYVSTHKYEWYVDAKNMVYLQMHSLKPEDTAIYYCAAGTGWSPQTDNEYNYWGQGTQVTVSS", "values": [
      {"measurement": "binding to human C5 (phage ELISA)", "setting": "[1]", "value": "displayed binding to human C5"}
    ]},
    {"molecule": "563 (protein, Anti-C5 ultralong CDR-H3) CDR: TTVHQQTKKQKSCPDGWGHSDDCNCACSANAYACCKRDWLLPGPSCECSTYCVSHTYQWYV", "values": [
      {"measurement": "Specificity", "setting": "[4]", "value": "Human"}
    ]},
    {"molecule": "564 (protein, Anti-C5 ultralong CDR-H3) CDR: TTVHQHTRKSGSCPDGWSDCHGSCDGVGCTGSDCVRYNARGYGRHACSGYAYTYSYEFYVN", "values": [
      {"measurement": "Specificity", "setting": "[4]", "value": "Human"}
    ]},
    {"molecule": "hC3nb1-K149: hC3nb1 with K149 ultralong CDR-H3 inserted between H74 and H75, displayed on M13 phage (protein, left off: large carriers) VHH: QVQLVETGGGLVQAGGSLRLSCAASGSIFSLNAMGWFRQAPGKEREFVATINRSGGRTYYADSVKGRFTISRDNGTSVLQSTKPQKSCPDGFSYRSWDDFCCPMVGRCLAPRNTYTTEFTIEAKNMVYLQMHSLKPEDTAIYYCAAGTGWSPQTDNEYNYWGQGTQVTVSS", "values": [
      {"measurement": "binding to human C5 (phage ELISA)", "setting": "[1]", "value": "did not bind"},
      {"measurement": "binding to human C3 (phage ELISA)", "setting": "[3]", "value": "did not bind"}
    ]}
  ]
}
